# Like-named read-outs stand apart in the source and are kept apart here.
# Tests used:
# Test in all cases: ELISA
# [1] = target: T1, recombinant human Axl-Fc protein (R and D Systems, cat N° 154-AL) (UniProt P30530 26-451)
# [2] = target: T1, recombinant human Axl-Fc protein (R and …); remark: listed apart in the source
# [3] = target: T1, recombinant human Axl-Fc protein (R and …); remark: listed apart in the source
# T1 sequence (P30530 26-451 D266N): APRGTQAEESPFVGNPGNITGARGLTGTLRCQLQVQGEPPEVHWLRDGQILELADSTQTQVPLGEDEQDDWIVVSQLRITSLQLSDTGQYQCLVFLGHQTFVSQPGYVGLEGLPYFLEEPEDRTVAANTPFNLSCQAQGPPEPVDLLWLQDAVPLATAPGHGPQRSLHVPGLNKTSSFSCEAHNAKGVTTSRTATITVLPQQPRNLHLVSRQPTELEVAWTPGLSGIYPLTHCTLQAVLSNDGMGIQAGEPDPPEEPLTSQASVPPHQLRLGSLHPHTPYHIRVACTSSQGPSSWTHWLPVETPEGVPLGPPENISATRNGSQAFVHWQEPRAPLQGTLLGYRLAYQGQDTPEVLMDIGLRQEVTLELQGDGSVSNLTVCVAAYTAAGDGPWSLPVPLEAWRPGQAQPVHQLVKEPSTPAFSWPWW
binder,measurement,setting,value
"110D7 anti-Axl monoclonal antibody (antibody, V domains shown) VH: EVKLVESGGGLVQPGGSLKLSCATSGFTFSDYYMYWVRQTPEKRLEWVAYISNGGGSTYYPDTVKGRFTMSRDNAKNTLYLQMSRLKSEDTAMYYCARLSFYAMDYWGQGTSVTVSS VL: DIVMTQSHKFMSTSVGDRVSITCKASQDVTTAVAWYQQKPGQSPKLLIYWASTRHTGVPDRFTGSGSGTDYTLTISSVQAEDLALYYCQQHYRIPFTFGSGTKLEIK",EC50,[1],1.35 nM
"1024G11 anti-Axl monoclonal antibody (antibody, V domains shown) VH: EVKLVESGGGLVQPGGSLNLSCAASGFTFSSYSMSWVRQTPEKRLEWVAFISNGGGRTYYPDTVKGRFTFSRDNARNTLYLQMSSLNSEDTAMYFCARGTTESYYAMDYWGQGTSVTVSS VL: DIVMTQSHKFMSTSVGDRVSITCKASQDVITAVAWYQQKPGQSPKLLIYWASTRHTGVPDRFTGSGSGTDYTLTISSVQAEDLALYFCQQHLSTPLTFGAGTKLELK",EC50,[2],3.57 nM
"1003A2 anti-Axl monoclonal antibody (antibody, V domains shown) VH: EVKLVESGGGLVQPGGSLKLSCAASGFTFNSYSMSWVRQTPEKRLEWVAYISNGGGRTYYPDTIKGRFTLSRDNDRNTLYLQMSSLKSEDTAMYYCARGTTESYYALDYWGQGTSVTVSS VL: DIVMTQSHKFMSTSLGDRISITCKASQDVITAVAWYQQKPGQSPKLLIYWASTRHTGVPDRFTGSGSGTDYNLTISSVQAEDLALYYCQQHFSTPLTFGAGTKLELK",EC50,[3],2.35 nM

# — US20160046725A1 (published 2016)
